Experimental data: patent publication US20250129166A1 (Five Prime, published 2025)
One block for each binder: values may come before it.

Tests used:
[1] = target: T1, monovalent hVISTA-ECD (amino acids 32-193 of SEQ ID NO: 1 with a 7xHis tail) (human, UniProt Q9H7M9 33-193); test: SPR, mAb captured on Protein A, hVISTA-ECD analyte, 37 C, pH 6.7
T1 construct: also called huVISTA-His; human VISTA-ECD
Protocol: (§1) Binding kinetics were measured using a Biacore® T100 instrument (GE Healthcare). Protein A (ThermoFisher Scientific catalog #21181) was diluted to 20 μg/ml in 10 mM sodium acetate pH 4.5 and immobilized onto flow cells of a CM5 biosensor following the manufacturer's amine coupling protocol (GE Healthcare), targeting 2,000 RU immobilization density of Protein A per flow cell. The assay was conducted at 37° C. using PBST (137 mM sodium chloride, 2.7 mM potassium chloride, 10 mM phosphate buffer, 0.05% Tween 20) running buffer at pH 7.4, 6.7 and 6.0. Antibodies were diluted to 25 nM in PBST pH 7.4, and were captured across active biosensor flow cells at 5 ul/min for 40 seconds. A concentration series of 100-10 nM monovalent hVISTA-ECD (SEQ ID NO: 325) was prepared in pH 7.4, 6.7 and 6.0 running buffers, and was injected over the captured antibodies at 40 ul/min to measure association and dissociation. Two 15 second injections of 10 mM glycine pH 1.5 were used to regenerate the Protein A capture surface between assay cycles. Rate constants ka (kon) and kd (koff) were derived from reference flow cell and 0 nM blank-subtracted sensorgrams, and were fit to a 1:1 binding model in Biacore® T200 Evaluation Software v.2.0.
(§2) The affinity constant, KD was calculated as the ratio of rate constants koff/kₒₙ for each VISTA antibody. The % Rmax was calculated to compare how pH affects an antibody's binding capacity for VISTA, and represents the measured maximal VISTA binding response relative to the expected maximal VISTA binding response. The % Rmax is defined as the ratio of the reference-subtracted ‘binding’ report point response at the end of the 100 nM VISTA injection for each antibody (Rmax) relative to the expected VISTA binding response (Rexp). Rexp is calculated as Rexp=[(VISTA-ECD molecular weight/mAb molecular weight)×(mAb ‘capture’ report point response (RUs)]×2 binding sites per mAb.

[2] = target: T1, monovalent hVISTA-ECD (amino acids …); test: SPR, mAb captured on Protein A, hVISTA-ECD analyte, 37 C, pH 6.0
Protocol: as §1, §2

[3] = target: T1, monovalent hVISTA-ECD (amino acids …); test: SPR, mAb on Protein A, 37C, pH 7.4
Protocol: (§3) Binding of several preparations of each of the '029 progeny clones and of the parent '029 antibodies, formatted as IgG1.3 antibodies, to human VISTA at pH 6.0 and 7.4 was measured by Surface plasmon resonance (SPR). SPR analysis was performed to measure koff and KD binding affinity measurements for VISTA Abs at acidic and neutral pHs using a Biacore® T100 instrument (GE Healthcare). Protein A (ThermoFisher Scientific catalog #21181) was diluted to 20 μg/ml in 10 mM sodium acetate pH 4.5 and immobilized onto flow cells of a CM5 biosensor following the manufacturer's amine coupling protocol (GE Healthcare), targeting 2,000 RU immobilization density of Protein A per flow cell. SPR experiments were conducted at 37° C. using PBST (137 mM sodium chloride, 2.7 mM potassium chloride, 10 mM phosphate buffer, 0.05% Tween® 20) running buffer at pH 7.4 and 6.0. Antibodies were diluted to 25 nM in PBST pH 7.4, and were captured across active biosensor flow cells at 5 ul/min for 60 seconds. A concentration series of 50-5 nM monovalent hVISTA-ECD (SEQ ID NO: 325) was prepared in pH 7.4 and 6.0 running buffers, and was injected over the captured antibodies at 40 ul/min to measure association and dissociation. Two 15 second injections of 10 mM glycine pH 1.5 were used to regenerate the Protein A capture surface between assay cycles. Rate constants ka (kₒₙ) and kd (koff) were derived from reference flow cell and 0 nM blank-subtracted sensorgrams, and were fit to a 1:1 binding model in Biacore® T200 Evaluation Software v.2.0. The affinity constant, KD was calculated as the ratio of rate constants koff/kₒₙ for each VISTA antibody.

[4] = target: T1, monovalent hVISTA-ECD (amino acids …); test: SPR, mAb on Protein A, 37C, pH 6.0
Protocol: as §3

[5] = target: T1, monovalent hVISTA-ECD (amino acids …); test: SPR, mAb captured on Protein A, hVISTA-ECD analyte, 37 C, pH 7.4
Protocol: as §1, §2

[6] = target: T1, monovalent hVISTA-ECD (amino acids …); test: SPR, mAb on Protein A, 37C, pH 6.0; pH 6.0
Protocol: as §3

T1 sequence (Q9H7M9 other isoform, or with tags, fused parts or gaps limits assumed): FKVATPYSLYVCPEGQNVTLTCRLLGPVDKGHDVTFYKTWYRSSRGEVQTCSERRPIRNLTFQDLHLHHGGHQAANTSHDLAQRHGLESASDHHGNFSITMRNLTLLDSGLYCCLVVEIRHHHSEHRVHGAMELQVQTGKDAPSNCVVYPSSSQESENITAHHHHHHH

Kd [3]: 190 nM
koff [3]: 0.0085 s⁻¹
kon [3]: 44000 M⁻¹ s⁻¹
Kd [4]: 2.5 nM
koff [4]: 0.0016 s⁻¹
kon [4]: 650000 M⁻¹ s⁻¹
B2: P1-072002 (P1-061029_F100fE) (antibody, human IgG1, kappa, V domains shown)
VH: EVQLVESGGGLVQPGKSLRLSCAASGFTLDDYAMHWVRQAPGKGLEWVSGINWNSANIGYADSVKGRFTISRDNAKNSLYLQMNSLRTEDTALYYCAKVPGYSGGWIDAEDVWGQGTMVTVSS
VL: not shown
notes: also called P1-72002

Kd [3]: 45 nM
koff [3]: 0.0059 s⁻¹
kon [3]: 130000 M⁻¹ s⁻¹
Kd [4]: 7.3 nM
koff [4]: 0.0059 s⁻¹
kon [4]: 810000 M⁻¹ s⁻¹
B6: P1-071757 (P1-061029_HC_K16R_T84A, FW revertant) (antibody, V domains shown)
VH: EVQLVESGGGLVQPGRSLRLSCAASGFTLDDYAMHWVRQAPGKGLEWVSGINWNSANIGYADSVKGRFTISRDNAKNSLYLQMNSLRAEDTALYYCAKVPGYSGGWIDAFDVWGQGTMVTVSS
VL: not shown
notes: VH/VL only

Kd [3]: 46 nM
koff [3]: 0.006 s⁻¹
kon [3]: 130000 M⁻¹ s⁻¹
Kd [4]: 7.4 nM
koff [4]: 0.0059 s⁻¹
kon [4]: 800000 M⁻¹ s⁻¹
B11: P1-071759 (P1-061029_HC_K16R, FW revertant) (antibody, V domains shown)
VH: EVQLVESGGGLVQPGRSLRLSCAASGFTLDDYAMHWVRQAPGKGLEWVSGINWNSANIGYADSVKGRFTISRDNAKNSLYLQMNSLRTEDTALYYCAKVPGYSGGWIDAFDVWGQGTMVTVSS
VL: not shown
notes: VH/VL only

koff [1]: 0.014 s⁻¹
koff [2]: 0.0052 s⁻¹
B12: P1-068761_H100G (antibody, human IgG1, kappa, V domains shown)
VH: EVQLVESGGGLVQPGKSLRLSCAASGFTLEDEAMHWVRQAPGKGLEWVSGINWNSEEIGYADSVKGRFTISRDNAKNSLYLQMNSLRTEDTALYYCAKVPGYSGGWIDAEDVWGQGTMVTVSS
VL: not shown
notes: also called P1-070872

Kd [3]: 540 nM
koff [3]: 0.0063 s⁻¹
kon [3]: 12000 M⁻¹ s⁻¹
Kd [4]: 3.5 nM
koff [4]: 0.0012 s⁻¹
kon [4]: 340000 M⁻¹ s⁻¹
B13: P1-072006 (P1-061029_Y32E) (antibody, human IgG1, kappa, V domains shown)
VH: EVQLVESGGGLVQPGKSLRLSCAASGFTLDDEAMHWVRQAPGKGLEWVSGINWNSANIGYADSVKGRFTISRDNAKNSLYLQMNSLRTEDTALYYCAKVPGYSGGWIDAFDVWGQGTMVTVSS
VL: not shown
notes: also called P1-72006

Kd [6]: 7 nM
koff [6]: 0.0018 s⁻¹
kon [6]: 260000 M⁻¹ s⁻¹
koff [1]: 0.0064 s⁻¹
koff [2]: 0.0017 s⁻¹
B15: P1-070868 (P1-068761_E55A) IgG1.3 (antibody, V domains shown)
VH: EVQLVESGGGLVQPGKSLRLSCAASGFTLEDEAMHWVRQAPGKGLEWVSGINWNSAEIGYADSVKGRFTISRDNAKNSLYLQMNSLRTEDTALYYCAKVPGYSHGWIDAEDVWGQGTMVTVSS
VL: not shown
notes: IgG1.3

Kd [3]: 40 nM
koff [3]: 0.006 s⁻¹
kon [3]: 150000 M⁻¹ s⁻¹
Kd [4]: 6.9 nM
koff [4]: 0.006 s⁻¹
kon [4]: 870000 M⁻¹ s⁻¹
B16: P1-071761 (P1-061029_HC_T84A, FW revertant) (antibody, V domains shown)
VH: EVQLVESGGGLVQPGKSLRLSCAASGFTLDDYAMHWVRQAPGKGLEWVSGINWNSANIGYADSVKGRFTISRDNAKNSLYLQMNSLRAEDTALYYCAKVPGYSGGWIDAFDVWGQGTMVTVSS
VL: not shown
notes: VH/VL only

koff [2]: 0.0081 s⁻¹
B18: P1-068761_E56N_H100G (antibody, human IgG1, kappa, V domains shown)
VH: EVQLVESGGGLVQPGKSLRLSCAASGFTLEDEAMHWVRQAPGKGLEWVSGINWNSENIGYADSVKGRFTISRDNAKNSLYLQMNSLRTEDTALYYCAKVPGYSGGWIDAEDVWGQGTMVTVSS
VL: not shown
notes: also called P1-070900

The remaining lines, values behind:

B1: P1-068761_E30D (antibody, human IgG1, kappa, V domains shown)
VH: EVQLVESGGGLVQPGKSLRLSCAASGFTLDDEAMHWVRQAPGKGLEWVSGINWNSEEIGYADSVKGRFTISRDNAKNSLYLQMNSLRTEDTALYYCAKVPGYSHGWIDAEDVWGQGTMVTVSS
VL: not shown
notes: also called P1-070864
koff [1]: 0.018 s⁻¹
koff [2]: 0.0062 s⁻¹

B3: P1-068761_E32Y (antibody, human IgG1, kappa, V domains shown)
VH: EVQLVESGGGLVQPGKSLRLSCAASGFTLEDYAMHWVRQAPGKGLEWVSGINWNSEEIGYADSVKGRFTISRDNAKNSLYLQMNSLRTEDTALYYCAKVPGYSHGWIDAEDVWGQGTMVTVSS
VL: not shown
notes: also called P1-070866
koff [5]: 0.0025 s⁻¹
koff [1]: 0.00064 s⁻¹
koff [2]: 0.00041 s⁻¹

B4: P1-068761_E55A_E56N (antibody, human IgG1, kappa, V domains shown)
VH: EVQLVESGGGLVQPGKSLRLSCAASGFTLEDEAMHWVRQAPGKGLEWVSGINWNSANIGYADSVKGRFTISRDNAKNSLYLQMNSLRTEDTALYYCAKVPGYSHGWIDAEDVWGQGTMVTVSS
VL: not shown
notes: also called P1-070878
koff [1]: 0.029 s⁻¹
koff [2]: 0.0056 s⁻¹

B5: P1-068761_E32Y_E55A (antibody, human IgG1, kappa, V domains shown)
VH: EVQLVESGGGLVQPGKSLRLSCAASGFTLEDYAMHWVRQAPGKGLEWVSGINWNSAEIGYADSVKGRFTISRDNAKNSLYLQMNSLRTEDTALYYCAKVPGYSHGWIDAEDVWGQGTMVTVSS
VL: not shown
notes: also called P1-070882
koff [5]: 0.0027 s⁻¹
koff [1]: 0.0006 s⁻¹
koff [2]: 0.00057 s⁻¹

B7: P1-068761_E30D_E55A (antibody, human IgG1, kappa, V domains shown)
VH: EVQLVESGGGLVQPGKSLRLSCAASGFTLDDEAMHWVRQAPGKGLEWVSGINWNSAEIGYADSVKGRFTISRDNAKNSLYLQMNSLRTEDTALYYCAKVPGYSHGWIDAEDVWGQGTMVTVSS
VL: not shown
notes: also called P1-070890
koff [2]: 0.0074 s⁻¹

B8: P1-068761_E30D_E56N (antibody, human IgG1, kappa, V domains shown)
VH: EVQLVESGGGLVQPGKSLRLSCAASGFTLDDEAMHWVRQAPGKGLEWVSGINWNSENIGYADSVKGRFTISRDNAKNSLYLQMNSLRTEDTALYYCAKVPGYSHGWIDAEDVWGQGTMVTVSS
VL: not shown
notes: also called P1-070892
koff [2]: 0.034 s⁻¹

B9: P1-068761_E30D_H100G (antibody, human IgG1, kappa, V domains shown)
VH: EVQLVESGGGLVQPGKSLRLSCAASGFTLDDEAMHWVRQAPGKGLEWVSGINWNSEEIGYADSVKGRFTISRDNAKNSLYLQMNSLRTEDTALYYCAKVPGYSGGWIDAEDVWGQGTMVTVSS
VL: not shown
notes: also called P1-070894
koff [2]: 0.021 s⁻¹

B10: P1-068761_E30D_E32Y (antibody, human IgG1, kappa, V domains shown)
VH: EVQLVESGGGLVQPGKSLRLSCAASGFTLDDYAMHWVRQAPGKGLEWVSGINWNSEEIGYADSVKGRFTISRDNAKNSLYLQMNSLRTEDTALYYCAKVPGYSHGWIDAEDVWGQGTMVTVSS
VL: not shown
notes: also called P1-070876
koff [5]: 0.0035 s⁻¹
koff [1]: 0.00099 s⁻¹
koff [2]: 0.00071 s⁻¹

B14: P1-068761_E30D_E100fF (antibody, human IgG1, kappa, V domains shown)
VH: EVQLVESGGGLVQPGKSLRLSCAASGFTLDDEAMHWVRQAPGKGLEWVSGINWNSEEIGYADSVKGRFTISRDNAKNSLYLQMNSLRTEDTALYYCAKVPGYSHGWIDAFDVWGQGTMVTVSS
VL: not shown
notes: also called P1-070896
koff [5]: 0.0035 s⁻¹
koff [1]: 0.00057 s⁻¹
koff [2]: 0.00033 s⁻¹

B17: P1-068761_E56N (antibody, human IgG1, kappa, V domains shown)
VH: EVQLVESGGGLVQPGKSLRLSCAASGFTLEDEAMHWVRQAPGKGLEWVSGINWNSENIGYADSVKGRFTISRDNAKNSLYLQMNSLRTEDTALYYCAKVPGYSHGWIDAEDVWGQGTMVTVSS
VL: not shown
notes: also called P1-070870
koff [2]: 0.0055 s⁻¹
